Results as given in PMC12197075, “Identification of the Glyceraldehyde-3-Phosphate Dehydrogenase (GeGAPDH) Gene Family in Gastrodia elata Revealing Its Response Characteristics to Low-Temperature and Pathogen Stress” (Plants, 2025).

Substrate: O=C[C@H](O)COP(=O)(O)O
Assay: purified protein
Conditions: phosphorylation direction, 0.6 mM NAD+, 50 mM triethanolamine, 50 mM sodium phosphate (printed 'bisphosphate'), 0.2 mM EDTA, 25 °C, pH not stated, G3P 0.25-5 mM

B1: GeGAPDH1 (Gastrodia elata) (protein)
chain: MASTAFVGSVTPLSEASFPFASSTRAPEPFRVFCWRSRSSEGSSVLCASTSCSKFPLAAISTQKSNRRNFQHTKATATETPPVVSRSSSDGKTKVGINGFGRIGRLVLRIAASRDDIEVVAVNDPFVDAKYMAYMFKYDSTHGTFKGTIKVVDESTIEIDGKRIAVTSKRDPSEITWSDFGAEYVVESSGVFTTMDKASAHLKGGAKKVVISAPSADAPMFVVGVNEQMYQPHMNIVSNASCTTNCLALLAKVVHEEFGIVEGLMTTVHATTATQKTVDGPSMKDWRGGRGASQNIIPSSTGAAKAVGKVLPELNGKLTGMAFRVPTTNVSVVDLTCRLANDASYEDVKAAVRAASEGCLKGILGYTDEDVVSNDFIGDSRSSIFDAKAGIGLGTNFMKLVSWYDNEWGYSNRVLDLIQHVARVCAHK
  Km: 312 µM
